Test results as given in patent publication US20230226096A1 (Orna Therapeutics, Inc., priority 2020, published 2023).

B1: Kunsagivirus 1 (nucleic acid, listed as Kunsagivirus sp.)
DNA: TTTCAAATCGGACTCCGGTAGTTATACCGGAGCCCGGTTTGGACGCTTGGGCCGCGTTAACAGCCCCCCACCCCTTTCCCACTGACTGATTTCTCGGATTGGACTCATTTGCATTGCTAACTCTGATTCTGGATTTCCCCGTTTATGTCGTCGCGGTCGGAAGTGCACGTACTTCGACGTTGATCTGATGGCGTTTGTTTCCAGGGGGGAGGTGGCGGCAGAAACGCCCCCGCCGTAAACTTCGGCGGGCCACGCCTGTCAAGCCACTCCCTGGGGCCGAGCGCCTGAGGTGATACAGAGAGATAAGCACACTGGGCGCTGACAACGCCCGGGACCTCAGTGAGAAGAGCAGTAGGGCCGTGTTTATGGGACTCCATTGGATATCCCCCGCTTGTCGGAACTCACGGCTACTCCGGGTTGGGAAGCCCGCGACTGGTACTGTACTGGGTGATAGCCTGGTGCCTTCCCTCTCACTGTTGTATGAAGGCTGAAAACCCCCT
B2: Hubei zhaovirus-like virus 1 (nucleic acid)
DNA: GTGCAGGATGGCCTTTCCCATCTTAAGTGGTTTGTAGGATTTCGTGGGTCCATACCCCCCGATTTCTTGGTACGTATTCCATGCACGGAGAATACGACCAAAACTCTTATTTCAAAAAATATTATTTTTTACTCTTGTGGGCTGAGTGCGACCCACCAGTTCCAGCTTAGCAACCTGGAAGTTGTTGGAGATTTATGGAACCAAATTACACATGCGTGGAGTGCCGCCACTCCGTATCTGTTCACTCATTACGCGATTAAGTTCTGCGACGAGACGAGCGAA
B3: EV22 (nucleic acid)
DNA: CCTTATAACCCGACTTGCTGAGCTTCTATAGGAAAAAACCCTTTCCCAGCCTTGGGGTGGCTGGTCAATAAAAACCCCCATAGTAACCAACACCTAAGACAATTTGATCAACCCTATGCCTGGTCCCCACTATTCGAAGGCAACTTGCAATAAGAAGAGTGGAACAAGGATGCTTAAAGCATAGTGTAAATGATCTTTTCTAACCTGTATTATGTACAGGGTGGCAGATGGCGTGCCATAAATCTATTAGTGGGATACCACGCTTGTGGACCTTATGCCCACACAGCCATCCTCTAGTAAGTTTGTAAAATGTCTGGTGAGATGTGGGAACTTATTGGAAACAACAATTTGCTTAATAGCATCCTAGTGCCAGCGGAACAACATCTGGTAACAGATGCCTCTGGGGCCAAAAGCCAAGGTTTGACAGACCCATTAGGATTGGTTTCAAAACCTGAATTGTTGTGGAAGATATTCAGTACCTATCAATCTGGTAGTGGTGCAAACACTAGTTGTAAGGCCCACGAAGGATGCCCAGAAGGTACCCGCAGGTAACAAGAGACACTGTGGATCTGATCTGGGGCCAACTACCTCTATCAGGTGAGTTAGTTAAAAAACGTCTAGTGGGCCAAACCCAGGGGGGATCCCTGGTTTCCTTTTATTGTTAATATTGACATT
B4: Megirivirus E (nucleic acid)
DNA: GCTTGGCAACCTCATATCGTTACTCTGCCGACCAGTCTGGGTCGTGTGGCCACACAATGGGATTCGTTCTGTTGTGTAGAGTCACATGGCATTACTGGGCTGATCGGTGGGGATCCGTTGCCACCCCTAAACCCTTACATTTACTGGACTGCTTTTCTTGGCCCCGGAATGATTCGCTCACCCGCGATGAGGACTGTTGTTCTTATTATGGCAGGATTACGCGTCTGGTCCGCGTAAGGACTAATTCCTATGTTTATACGTTACTACCTTGTTCTGAACGGTGGGCGCCACCCCGCCTAGTAGGATCCTGGCTTATCGTGTAGACCTCTAGGGACCACATTAGCTAGAGTGTAGGCTGCTATGGATGGAGTAGTGACCCCTTTTTGGGTATCACTCTCTAAGACTCCGGAATGTGTCATAGTACGCTGGAAATCCTTACTTGTTTTTCCATGAGGGGGAGGTGGTGCTGAAATATTGCAAGCCACCCCTCGGTTAAAACAGTTTGGTGCCGCTTATGCCATATTACCGCCCCTTGTAGTTGGGCTGTTTTTGCAGCTCCGGGTTAGTAGAGTACCATAGTGGACGCGGTGTTGGGAATCACCGCCTTGGCTGCACACTGCTTGATAGAGCTGCGGCTGGTCAAGCTAATTGTGGTATAACCAGTTGATTTGGCAT
B5: Hubei sobemo-like virus 3 (nucleic acid)
DNA: GAGATGTTTGCGTGGGCCGTTGCGCTGCGGGCGGCCCACCTCCCTACGGGGACCGTGAGACACCGCTGGGGAAGGCCCCCACCCCCGGCCAAGGGGATCCTGCCGAGAGGCAGGAGAAAGAGGCCCAGCCCTCTGGGGCGCCTTTAGGGGTGCCTGGGAGGGAAGTACCCGAGCCGGGCGGCCGGTCGGGTGCGGCTGTGCAGTTCGAGGCTAACCGTAAGGAAGGCCTGAGCTGCCTCGGCTTGTCGGAAAGGAAGACGAAGGCACTTATCAAGGCTTTCAGGAAGCAGGAGCGCAATTACAGCGCGCGCCGTGCGGCCTGGATTAACCGCATTTGGCCG
B6: Hubei picorna-like virus 2 (nucleic acid)
DNA: AGCAACTTCTTTCTGAAAACTAGCTAGAGTTCGACGATCTCTCTGGCTAATGACAAATAACCAATCAAAAAGTCAAATGTTCATGTATATATATATTTAGTAGTGACCTTTATTTAGAAAAACTTTAGATGATTTATCGTCAAGTTGCCCTTTGTGAAGCGATCAGCTTTTTATATCGTTTCATTTTTGTATACGTCTTAATTGACGTTGTAAGTACGTTTTGCATACCTCACATTGAGGATAGTATCGTTTCCTGACTAAGAAGTTAAACTAGTCTACCAATAGCAACCATATAGGATATAGCTTTGTTTTTAACAAGGTTTAATCTGATCTTATGCTCTTGCTTACGGTGTTTTATGTATAGAAAAGTTTTTATAAAAACTACATAATTGTCAAAAGAAAAAGCGTTACGTACTGACGCATTTATGTTCACAGTGTGACACAAACCTTCTATATTTTGATTGTAAAATAGGCTTTGCCTGACCATTTATCAAATACAAACTGTTTCAAACGCCTCTCCGAGCCATATTGGCCGACGCGAATCGACATAACAGGGTGAGTTTACAGCTGCAGTTGCAGCCGAGGATCCACTTATTTGAGAGAGAATTACTCTTAACGAAATTTTGAAGTCACTTCTACACAGTTAAGTCTGAGTAGGCGTTATCCAAACGTAAA
B7: Hubei tombus-like virus 32 (nucleic acid)
DNA: TTCGGGTTTACCCGCGTAAGCGGCCACACTGACTGGTTGTCGGTGTTGAATTTGTATACCAGATGAGGAGACGTTACCACCGTCTCGGCAGTGCTACGTCTGGGAAAGGACTGTGATAGTGGACAGTCCTACCGTCTTTAGATACATTGCGTTGTGTATAGCCCGGGAGGGATTAACTAATAGCAACGCAATGCACACGGCGGTTCGGATTTGCTTGACTGATGGAAAGACATCTAAGTTCTAATTGAACC
B8: Hepacivirus P (nucleic acid, listed as Hepacivirus sp.)
DNA: ACATGGGGGGGGGCTGACAGTGAGTACACTGTGCCAAGCAGGTGCTACGCTATGCCTAGGTGCTGCTGTAGGCCAAGGACATGTCCCAGTCATCCCAGGTGAGGGGGGGGGTTCCCCTCACCGCTGCCACTGCCTGATAGGGTCCTGCCGGAGGGTCTCGGTGTCCGGCTGTAC
B9: Human TMEV-like cardiovirus (nucleic acid, listed as Cardiovirus sp.)
DNA: TCCGACGTGGTTGGAATTAACATCTTTTCCGACGAAAGTGCTATTATGCCTCCCCGATTGTGTGATGCTTTCTGCCCTGCTGGGCGGAGCGTCCTCGGGTTGAGAAACCTTGAATCTTTTCCTTTGGAGCCTTGGCTCCCCCGGTCTAAGCCGCTTGGAATATGACAGGGTTATTTTCCAAACTCTTTATTTCTACTTTCATGGGTTCTATCCATGAAAAGGGTATGTGTTGCCCCTTCCTTCTTTGGAGAATCTGCGCGGCGGTCTTTCCGTCTCTCAACAGGCGTGGATGCAACATGCCGGAAACGGTGAAGAAAACAGTTTTCTGTGGAAATTTAGAGTGGACATCGAAACAGCTGTAGCGACCTCACAGTAGCAGCGGATTCCCCTCTTGGCGACAAGAGCCTCTGCGGCCAAAAGCCCCGTGGATAAGATCCACTGCTGTGAGCGGTGCAACCCCAGCACCCTGGTTCGATGGCCATTCTCTATGGAACCAGAAAATGGTTTTCTCAAGCCCTCCGGTAGAGAAGCCAAGAATGTCCTGAAGGTACCCCGCGCGCGGGATCTGATCAGGAGACCAATTGGCAGTGCTTTACGCTGCCACTTTGGTTTAAAAACTGTCACAGCTTCTCCAAACCAAGTGGTCTTGGTTTTCCAATTTTGTTGACTGACAAT
B10: Harrier picornavirus 1 (nucleic acid)
DNA: GATGTGTGACGGTGTAATTACTTTCCGGATCCCACTTTCCTATTATAACTCTTTCATCCCAAGGTTAGGGAAAGAACCTGGCTCGGTACCACCAGACCCTCCGCCACGCTAGTGGACTCTCCGGAGATAACGGTACCCCCTTTGTAGTCACCTGTGCTGGTGAAGAACCACCTAGTATTGCTTGGGTGCGTGCCGCCTAGCTTCCATTTCTTCTGGAGCACTGTGCAATGAGGTTTCCCCACTTGGTAACAAGTGCCTCAGGTCCCGCAAGGATACTGTGGGGTGGTGTGACCGCAGGGAGCTGTCTCCACGGCTCCTCTAATGTTACGCCGCTATCCACAGGCCAGTGCGTGTCATCGATCCCGGATGACAGAGCTAGTATTGCGAACCCCCAAGTAAGAAAAGTGGCTAGTAACCTGATAGCTGGTGAAGAGGGTGGGTCAGTTGAGTAGATGCCCTAGAGGTACCCGAAAGGATCTGACTAGGGACCCGTGACTATACATTAGGTAAACCGGGTATAAAAACCATGAAAAACTGACCACTTTTCTTTTAACCTCTTCTTTCTTTTTATGTGTGTTAAGTGTTTTGAGTTTGGACTGTACCTTGCCCGCCTTTCTTGGATTTTCTCTATCGCTCTTCTTACACCTACTGTTATCAAGGCACTCTTTAGAGATA
B11: Hubei tombus-like virus 9 (nucleic acid)
DNA: GGACCATCCAGGCAGGTGTAGGCTAGTACCCTCACCTGACCTGTCGCGATGTTTGGCTTTGTGAGGCTTGTGGGAGGATCCCTTGGCCCATGCATTGCTGCTGTCATCGTGAAAAATGTTGTATGCTCGCACCTGGCGTGGAGGAAACGGCATTTGACGGATGCTAAGGAGGATTTGAAGGTCCTCAACTCCCATGCCTTATTACAAGTCCCCTTTCCTTCAAGCTTCGAGCCCACGTCTGTGACGAGCAGAGGTGAGGTTGGAGTCAAGAGGAGTCCTATTCAAGCTGTTCGCAGCAAGAACCATAAAACTTTCATTGCTCAATGGGCAAGAGCGGCTAAGGCTCGGTTCTCGTTTGCACGACAGTGTGAGCGGAGCCCTGTAAATGTCGCGGCCCTTCATCGGTGGTTTGCATCGGAGTTTAAGAAAATTGGCATGAACTTGCTCCAGGTTTCGTACGTGATCGATGAGGTTGTTGAACTTAGTTTGGAACCAACGTATGAGCGTATGGTGTCCGAAACTAAGAAGCAATTCCGTCATCGGGCACGTATGGAATACTACAACGAGAAAAAATGCCTTGAAAAGATCCACTAGGAACGC

system: HEK293 cells; assay type: cell-based, human; conditions: luminescence from secreted Gluc in supernatant 24 hours after transfection of HEK293 cells; circular RNA encoding Gluc with the named IRES (UTR truncated to 675 nt)

First: B1
Second: B2
The Expression of the first is higher: 4.15E+05 for the first, 1.03E+05 for the second.

Going from B3 to B4, the Expression falls from 1.95E+07 to 1.10E+07.

First: B5
Second: B6
The Expression of the first is lower: 1.17E+05 for the first, 1.95E+05 for the second.

Compared with B7, B8 is higher in Expression: 9.23E+04 for the first, 6.04E+05 for the second.

Going from B9 to B10, the Expression falls from 4.48E+07 to 1.47E+05.

B11 gave an Expression of 9.28E+04.
